Measurements taken from IntAct's records for PubMed 15064750.

B1: Proliferation-associated protein 2G4 (Homo sapiens), Q9UQ80 (parent)
chain: MSGEDEQQEQTIAEDLVVTKYKMGGDIANRVLRSLVEASSSGVSVLSLCEKGDAMIMEETGKIFKKEKEMKKGIAFPTSISVNNCVCHFSPLKSDQDYILKEGDLVKIDLGVHVDGFIANVAHTFVVDVAQGTQVTGRKADVIKAAHLCAEAALRLVKPGNQNTQVTEAWNKVAHSFNCTPIEGMLSHQLKQHVIDGEKTIIQNPTDQQKKDHEKAEFEVHEVYAVDVLVSSGEGKAKDAGQRTTIYKRDPSKQYGLKMKTSRAFFSEVERRFDAMPFTLRAFEDEKKARMGVVECAKHELLQPFNVLYEKEGEFVAQFKFTVLLMPNGPMRITSGPFEPDLYKSEMEVQDAELKALLQSSASRKTQKKKKKKASKTAENATSGETLEENEAGD

Variants of: B1
Conditions: with npm_human NPM1, P06748
Chain of npm_human NPM1, P06748 (P06748 whole entry): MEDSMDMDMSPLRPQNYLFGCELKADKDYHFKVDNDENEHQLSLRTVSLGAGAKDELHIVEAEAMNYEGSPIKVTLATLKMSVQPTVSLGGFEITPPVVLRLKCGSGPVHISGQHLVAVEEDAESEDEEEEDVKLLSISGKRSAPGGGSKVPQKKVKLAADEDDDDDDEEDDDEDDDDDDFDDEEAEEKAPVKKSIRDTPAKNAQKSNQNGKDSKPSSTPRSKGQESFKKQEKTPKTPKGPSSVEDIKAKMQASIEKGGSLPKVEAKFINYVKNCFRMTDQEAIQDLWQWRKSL

| Variant | effect of a mutation on the interaction |
| --- | --- |
| MSGEDEQQEQTIAEDLVVTKYKMGGDIANRVLRSLVEASSSGVSVLSLCEKGDAMIMEETGKIFKKEKEMKKGIAFPTSISVNNCVCHFSPLKSDQDYILKEGDLVKIDLGVHVDGFIANVAHTFVVDVAQGTQVTGRKADVIKAAHLCAEAALRLVKPGNQNTQVTEAWNKVAHSFNCTPIEGMLSHQLKQHVIDGEKTIIQNPTDQQKKDHEKAEFEVHEVYAVDVLVSSGEGKAKDAGQRTTIYKRDPSKQYGLKMKTSRAFFSEVERRFDAMPFTLRAFEDEKKARMGVVECAKHELLQPFNVLYEKEGEFVAQFKFTVLLMPNGPMRITSGPFEPDLYKSEMEVQDAELKALLQSSASAATQKKKKKKASKTAENATSGETLEENEAGD [R364A;K365A] | decreasing interaction |
| MSGEDEQQEQTIAEDLVVTAYAMGGDIANRVLRSLVEASSSGVSVLSLCEKGDAMIMEETGKIFKKEKEMKKGIAFPTSISVNNCVCHFSPLKSDQDYILKEGDLVKIDLGVHVDGFIANVAHTFVVDVAQGTQVTGRKADVIKAAHLCAEAALRLVKPGNQNTQVTEAWNKVAHSFNCTPIEGMLSHQLKQHVIDGEKTIIQNPTDQQKKDHEKAEFEVHEVYAVDVLVSSGEGKAKDAGQRTTIYKRDPSKQYGLKMKTSRAFFSEVERRFDAMPFTLRAFEDEKKARMGVVECAKHELLQPFNVLYEKEGEFVAQFKFTVLLMPNGPMRITSGPFEPDLYKSEMEVQDAELKALLQSSASRKTQKKKKKKASKTAENATSGETLEENEAGD [K20A;K22A] | disrupting interaction |
